# Source: patent US20140087995A1 (published 2014)
# Numbered stars: 1 amine (or outer) side, 2 acyl side, 3 side chain; on linkers, the order of the positions; unused ones are H or OH. Bridge positions count the residues as written; N and C are the ends. Side chains are listed from the residue outwards. Ends that are not written are not given here. * marks the point of attachment. C20 diacid = O=C(O)CCCCCCCCCCCCCCCCCCC(=O)*; γGlu = O=C(O)[C@H](CCC(=O)[*:2])N[*:1]; AEEA = NCCOCCOCC(=O)O
# T1: human calcitonin receptor (human, UniProt P30988 25-474)
# T1 construct: whole, on cells; also called hCTR; hCT
# T1 sequence (looked up): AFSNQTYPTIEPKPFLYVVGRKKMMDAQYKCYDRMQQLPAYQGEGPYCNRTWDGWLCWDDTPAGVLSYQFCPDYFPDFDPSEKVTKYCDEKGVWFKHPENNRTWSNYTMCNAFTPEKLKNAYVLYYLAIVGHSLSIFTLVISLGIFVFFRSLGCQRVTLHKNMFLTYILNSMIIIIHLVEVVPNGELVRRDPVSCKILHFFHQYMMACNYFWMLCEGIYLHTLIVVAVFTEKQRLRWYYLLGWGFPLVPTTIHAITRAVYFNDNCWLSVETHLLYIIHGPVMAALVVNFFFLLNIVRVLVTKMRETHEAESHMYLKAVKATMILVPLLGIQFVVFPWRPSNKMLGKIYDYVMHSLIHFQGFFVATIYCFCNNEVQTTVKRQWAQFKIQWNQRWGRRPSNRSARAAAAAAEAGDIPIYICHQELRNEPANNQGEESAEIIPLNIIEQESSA
# Molecular target: T1, human calcitonin receptor
# Test: SPA competition with 125I-calcitonin, membranes of BHK hCTR cells (Assay VII)
# Method: Membranes were prepared in the following way; the cells were rinsed with PBS and incubated with Versene for approximately 5 min before harvesting. The cells were flushed with PBS and the cell-suspension was centrifuged for 5 min at 1000 rpm. Cells were homogenized (Ultrathurrax) in a buffer containing 20 mM Na-HEPES and 10 mM EDTA (pH 7.4) and centrifuged at 20.000 rpm for 15 min. The resulting pellet was resuspended, homogenized and centrifuged (20.000 rpm, 15 min) in a buffer containing 20 mM Na-HEPES and 0.1 mM EDTA (pH 7.4, buffer 2). The resulting pellet was resuspended in buffer 2 and protein concentration was measured (BCA protein Assay, Pierce). The homogenate was kept cold during the whole procedure. The membranes were kept at −80° C. until use. Assay was performed in a 384 well Optiplate (PerkinElmer) in a total volume of 40 ul. Membranes were mixed with SPA beads. Final concentration of membranes 35 ng/μL final and Final concentration of SPA beads was 0.05 mg/well. Test-compounds were dissolved in DMSO and further diluted in assay buffer (50 mM Hepes, pH 7.4, 1 mM CaCl2, 5 mM MgCl₂, 0.1% OA and 0.02% Tween20). […] The final mixture was incubated for 120 min with shaking at 400 rpm at 25° C. prior to centrifugation (1500 rpm, 10 min). Samples were analyzed on TopCounter™ (Packard). The […] was calculated using (one site binding competition analysis) GraphPad Prism5 as a measure of receptor affinity.
row,Binder,IC50
1,"K([AEEA-γGlu-C20 diacid])CNTATCATQRLAAFLRHSSPNFGAIPSSTPVGSNTY-NH2 (disulfide 2-7; N-terminus assumed; SMILES CC[C@H](C)[C@H](NC(=O)[C@H](C)NC(=O)CNC(=O)[C@H](Cc1ccccc1)NC(=O)[C@H](CC(N)=O)NC(=O)[C@@H]1CCCN1C(=O)[C@H](CO)NC(=O)[C@H](CO)NC(=O)[C@H](Cc1c[nH]cn1)NC(=O)[C@H](CCCNC(=N)N)NC(=O)[C@H](CC(C)C)NC(=O)[C@H](Cc1ccccc1)NC(=O)[C@H](C)NC(=O)[C@H](C)NC(=O)[C@H](CC(C)C)NC(=O)[C@H](CCCNC(=N)N)NC(=O)[C@H](CCC(N)=O)NC(=O)[C@@H](NC(=O)[C@H](C)NC(=O)[C@@H]1CSSC[C@H](NC(=O)[C@@H](N)CCCCNC(=O)COCCOCCNC(=O)CC[C@H](NC(=O)CCCCCCCCCCCCCCCCCCC(=O)O)C(=O)O)C(=O)N[C@@H](CC(N)=O)C(=O)N[C@@H]([C@@H](C)O)C(=O)N[C@@H](C)C(=O)N[C@@H]([C@@H](C)O)C(=O)N1)[C@@H](C)O)C(=O)N1CCC[C@H]1C(=O)N[C@@H](CO)C(=O)N[C@@H](CO)C(=O)N[C@H](C(=O)N1CCC[C@H]1C(=O)N[C@H](C(=O)NCC(=O)N[C@@H](CO)C(=O)N[C@@H](CC(N)=O)C(=O)N[C@H](C(=O)N[C@@H](Cc1ccc(O)cc1)C(N)=O)[C@@H](C)O)C(C)C)[C@@H](C)O, also called compound 72)",42.4 nM
2,"K([AEEA-γGlu-C20 diacid])CNTATCATQRLARFLRHSSPNFGAIPSSTPVGSNTY-NH2 (disulfide 2-7; N-terminus assumed; SMILES CC[C@H](C)[C@H](NC(=O)[C@H](C)NC(=O)CNC(=O)[C@H](Cc1ccccc1)NC(=O)[C@H](CC(N)=O)NC(=O)[C@@H]1CCCN1C(=O)[C@H](CO)NC(=O)[C@H](CO)NC(=O)[C@H](Cc1c[nH]cn1)NC(=O)[C@H](CCCNC(=N)N)NC(=O)[C@H](CC(C)C)NC(=O)[C@H](Cc1ccccc1)NC(=O)[C@H](CCCNC(=N)N)NC(=O)[C@H](C)NC(=O)[C@H](CC(C)C)NC(=O)[C@H](CCCNC(=N)N)NC(=O)[C@H](CCC(N)=O)NC(=O)[C@@H](NC(=O)[C@H](C)NC(=O)[C@@H]1CSSC[C@H](NC(=O)[C@@H](N)CCCCNC(=O)COCCOCCNC(=O)CC[C@H](NC(=O)CCCCCCCCCCCCCCCCCCC(=O)O)C(=O)O)C(=O)N[C@@H](CC(N)=O)C(=O)N[C@@H]([C@@H](C)O)C(=O)N[C@@H](C)C(=O)N[C@@H]([C@@H](C)O)C(=O)N1)[C@@H](C)O)C(=O)N1CCC[C@H]1C(=O)N[C@@H](CO)C(=O)N[C@@H](CO)C(=O)N[C@H](C(=O)N1CCC[C@H]1C(=O)N[C@H](C(=O)NCC(=O)N[C@@H](CO)C(=O)N[C@@H](CC(N)=O)C(=O)N[C@H](C(=O)N[C@@H](Cc1ccc(O)cc1)C(N)=O)[C@@H](C)O)C(C)C)[C@@H](C)O, also called compound 64)",56 nM
3,"K([AEEA-γGlu-C20 diacid])CNTATCATQRLANFLRHSSPNFGAIPSSTNVGSETY-NH2 (disulfide 2-7; N-terminus assumed; SMILES CC[C@H](C)[C@H](NC(=O)[C@H](C)NC(=O)CNC(=O)[C@H](Cc1ccccc1)NC(=O)[C@H](CC(N)=O)NC(=O)[C@@H]1CCCN1C(=O)[C@H](CO)NC(=O)[C@H](CO)NC(=O)[C@H](Cc1c[nH]cn1)NC(=O)[C@H](CCCNC(=N)N)NC(=O)[C@H](CC(C)C)NC(=O)[C@H](Cc1ccccc1)NC(=O)[C@H](CC(N)=O)NC(=O)[C@H](C)NC(=O)[C@H](CC(C)C)NC(=O)[C@H](CCCNC(=N)N)NC(=O)[C@H](CCC(N)=O)NC(=O)[C@@H](NC(=O)[C@H](C)NC(=O)[C@@H]1CSSC[C@H](NC(=O)[C@@H](N)CCCCNC(=O)COCCOCCNC(=O)CC[C@H](NC(=O)CCCCCCCCCCCCCCCCCCC(=O)O)C(=O)O)C(=O)N[C@@H](CC(N)=O)C(=O)N[C@@H]([C@@H](C)O)C(=O)N[C@@H](C)C(=O)N[C@@H]([C@@H](C)O)C(=O)N1)[C@@H](C)O)C(=O)N1CCC[C@H]1C(=O)N[C@@H](CO)C(=O)N[C@@H](CO)C(=O)N[C@H](C(=O)N[C@@H](CC(N)=O)C(=O)N[C@H](C(=O)NCC(=O)N[C@@H](CO)C(=O)N[C@@H](CCC(=O)O)C(=O)N[C@H](C(=O)N[C@@H](Cc1ccc(O)cc1)C(N)=O)[C@@H](C)O)C(C)C)[C@@H](C)O, also called compound 26)",25.3 nM
4,"K([AEEA-γGlu-C20 diacid])CNTATCATQRLANFLRHSSPNFGAIPPSTPVGSNTY-NH2 (disulfide 2-7, also called compound 53)",5.38 nM
5,"K([AEEA-γGlu-C20 diacid])CNTATCATQRLANFLRHSSPNFGAIPPSTNVGPNTY-NH2 (disulfide 2-7; N-terminus assumed; SMILES CC[C@H](C)[C@H](NC(=O)[C@H](C)NC(=O)CNC(=O)[C@H](Cc1ccccc1)NC(=O)[C@H](CC(N)=O)NC(=O)[C@@H]1CCCN1C(=O)[C@H](CO)NC(=O)[C@H](CO)NC(=O)[C@H](Cc1c[nH]cn1)NC(=O)[C@H](CCCNC(=N)N)NC(=O)[C@H](CC(C)C)NC(=O)[C@H](Cc1ccccc1)NC(=O)[C@H](CC(N)=O)NC(=O)[C@H](C)NC(=O)[C@H](CC(C)C)NC(=O)[C@H](CCCNC(=N)N)NC(=O)[C@H](CCC(N)=O)NC(=O)[C@@H](NC(=O)[C@H](C)NC(=O)[C@@H]1CSSC[C@H](NC(=O)[C@@H](N)CCCCNC(=O)COCCOCCNC(=O)CC[C@H](NC(=O)CCCCCCCCCCCCCCCCCCC(=O)O)C(=O)O)C(=O)N[C@@H](CC(N)=O)C(=O)N[C@@H]([C@@H](C)O)C(=O)N[C@@H](C)C(=O)N[C@@H]([C@@H](C)O)C(=O)N1)[C@@H](C)O)C(=O)N1CCC[C@H]1C(=O)N1CCC[C@H]1C(=O)N[C@@H](CO)C(=O)N[C@H](C(=O)N[C@@H](CC(N)=O)C(=O)N[C@H](C(=O)NCC(=O)N1CCC[C@H]1C(=O)N[C@@H](CC(N)=O)C(=O)N[C@H](C(=O)N[C@@H](Cc1ccc(O)cc1)C(N)=O)[C@@H](C)O)C(C)C)[C@@H](C)O, also called compound 55)",2.17 nM
6,"K([AEEA-γGlu-C20 diacid])CNTATCATQRLANFLRHSSPNFGAIPSPTPVGSNTY-NH2 (disulfide 2-7; N-terminus assumed; SMILES CC[C@H](C)[C@H](NC(=O)[C@H](C)NC(=O)CNC(=O)[C@H](Cc1ccccc1)NC(=O)[C@H](CC(N)=O)NC(=O)[C@@H]1CCCN1C(=O)[C@H](CO)NC(=O)[C@H](CO)NC(=O)[C@H](Cc1c[nH]cn1)NC(=O)[C@H](CCCNC(=N)N)NC(=O)[C@H](CC(C)C)NC(=O)[C@H](Cc1ccccc1)NC(=O)[C@H](CC(N)=O)NC(=O)[C@H](C)NC(=O)[C@H](CC(C)C)NC(=O)[C@H](CCCNC(=N)N)NC(=O)[C@H](CCC(N)=O)NC(=O)[C@@H](NC(=O)[C@H](C)NC(=O)[C@@H]1CSSC[C@H](NC(=O)[C@@H](N)CCCCNC(=O)COCCOCCNC(=O)CC[C@H](NC(=O)CCCCCCCCCCCCCCCCCCC(=O)O)C(=O)O)C(=O)N[C@@H](CC(N)=O)C(=O)N[C@@H]([C@@H](C)O)C(=O)N[C@@H](C)C(=O)N[C@@H]([C@@H](C)O)C(=O)N1)[C@@H](C)O)C(=O)N1CCC[C@H]1C(=O)N[C@@H](CO)C(=O)N1CCC[C@H]1C(=O)N[C@H](C(=O)N1CCC[C@H]1C(=O)N[C@H](C(=O)NCC(=O)N[C@@H](CO)C(=O)N[C@@H](CC(N)=O)C(=O)N[C@H](C(=O)N[C@@H](Cc1ccc(O)cc1)C(N)=O)[C@@H](C)O)C(C)C)[C@@H](C)O, also called compound 54)",4.38 nM
